According to US20160340395, “POLYPEPTIDE TAGGING FUSIONS AND METHODS” (REGENTS OF THE UNIVERSITY OF MINNESOTA, published 2016):

How the values were obtained:
GeneA* HUH (Y131H) [1] = molecular target: T1, GeneA* HUH (Y131H) (PhiX174, UniProt P03631 SEQ:1-340); assay: covalent adduct by SDS-PAGE; details: tags: N-terminal His6-SUMO; label: FAM
T1 chain: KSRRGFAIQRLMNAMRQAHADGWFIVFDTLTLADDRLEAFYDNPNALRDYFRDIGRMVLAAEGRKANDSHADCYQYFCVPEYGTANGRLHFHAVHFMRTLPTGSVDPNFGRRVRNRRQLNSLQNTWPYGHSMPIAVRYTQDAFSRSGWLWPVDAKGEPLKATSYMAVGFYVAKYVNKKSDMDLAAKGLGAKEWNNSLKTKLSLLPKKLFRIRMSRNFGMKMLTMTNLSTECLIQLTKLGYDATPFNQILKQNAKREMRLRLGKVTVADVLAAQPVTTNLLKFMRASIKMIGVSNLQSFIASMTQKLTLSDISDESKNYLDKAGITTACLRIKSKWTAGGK
Protocol: The reaction time is extremely fast. […] Product is observed after a reaction time of only five minutes.
(§1) Unless otherwise noted, gel-shift assays were performed in HUH buffer; 50 mM Hepes pH 8, 50 mM NaCl, 1 mM MgCl₂ and 1 mM MnCl₂, incubated at 37° C. for 15 minutes unless otherwise noted, and quenched with 4× loading buffer. The reactions were analyzed by either electrophoresis on 4-20% polyacrylamide gels stained with Coomassie Blue or Bio-Rad Stain-Free gels. For comparison of covalent adduct formation of SNAP and DCV, 25 pmol of SNAP/DCV proteins were mixed with 100 pmol respective DNA-oligo in SNAP/HUH buffer. 4×SDS loading buffer was added at indicated times to quench. SNAP buffer: 50 mM Hepes pH8, 50 mM NaCl, and 5 mM β-mercaptoethanol. Specificity reactions of HUH-proteins with each target-oligo were performed in HUH buffer with 150 mM NaCl.

GeneA* HUH (Y131H) [2] = molecular target: T1, GeneA* HUH (Y131H); assay: no cross-reactivity in mixture; details: tags: N-terminal His6-SUMO; label: Cy5
RepB HUH domain = molecular target: T2, RepB HUH domain (Streptococcus agalactiae, UniProt P13921 SEQ:1-132); assay: covalent adduct by SDS-PAGE; 1 uM protein, 5 uM DNA, 30 min 37 C; details: tags: N-terminal His6-SUMO; label: FAM
T2 chain: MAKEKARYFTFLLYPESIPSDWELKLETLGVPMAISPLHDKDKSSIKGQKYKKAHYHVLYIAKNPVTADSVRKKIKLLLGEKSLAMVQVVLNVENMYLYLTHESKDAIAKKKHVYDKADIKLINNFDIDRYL
Protocol: (§2) The HUH endonuclease-based protein tags described herein allow one to orthogonally label proteins in cells.
as §1

[3] = molecular target: T3, mMobA minimal relaxase domain (Escherichia coli, UniProt P07112 SEQ:1-186); assay: as above; details: tags: N-terminal His6-SUMO; label: Cy3
T3 chain: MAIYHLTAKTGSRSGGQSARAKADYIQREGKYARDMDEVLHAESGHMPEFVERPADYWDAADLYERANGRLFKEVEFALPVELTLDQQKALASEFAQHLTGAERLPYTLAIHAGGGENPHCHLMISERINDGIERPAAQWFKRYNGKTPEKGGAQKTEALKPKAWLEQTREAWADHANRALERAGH
Protocol: as §2, §1

TCGACAACTTGATATTAATAACACTATAGAC (ssDNA) [GeneA target]: binds (GeneA* HUH (Y131H) [1]).

AAGTATTACCAG (ssDNA) [PCV2 ori target]: no binding (GeneA* HUH (Y131H) [2]).

TGCTTCCGTACTACGACCCCCCA (ssDNA) [RepB target]: binds (RepB HUH domain).

CCAGTTTCTCGAAGAGAAACCGGTAAATGCGCCCT (ssDNA) [mMobA target]: binds [3].
